The supplement of paper PMC5998384

How the values were obtained:
HeLa Kyoto [1] = assay: solubility in G1/S (NP-40 vs SDS abundance) (log2 ratio); higher = more soluble; details: cell cycle stage: G1/S
HeLa Kyoto [2] = assay: solubility change mitosis vs G1/S (difference of NP-40 vs SDS log2 ratios) (log2 ratio difference); higher = more soluble in mitosis
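Throughout, for solubility change mitosis vs G1/S (difference of NP-40 vs SDS log2 ratios): synchronized HeLa Kyoto cells (double thymidine block for G1/S, nocodazole release for mitosis), protein amounts in NP-40 versus SDS lysates quantified by mass spectrometry, three biological replicates.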
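Throughout, for solubility in G1/S (NP-40 vs SDS abundance): HeLa Kyoto cells arrested at G1/S by double thymidine block, proteins quantified by TMT10plex mass spectrometry in mild NP-40 versus SDS extracts, three biological replicates.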

Chain of MAP4K5 (chain, as listed by the source): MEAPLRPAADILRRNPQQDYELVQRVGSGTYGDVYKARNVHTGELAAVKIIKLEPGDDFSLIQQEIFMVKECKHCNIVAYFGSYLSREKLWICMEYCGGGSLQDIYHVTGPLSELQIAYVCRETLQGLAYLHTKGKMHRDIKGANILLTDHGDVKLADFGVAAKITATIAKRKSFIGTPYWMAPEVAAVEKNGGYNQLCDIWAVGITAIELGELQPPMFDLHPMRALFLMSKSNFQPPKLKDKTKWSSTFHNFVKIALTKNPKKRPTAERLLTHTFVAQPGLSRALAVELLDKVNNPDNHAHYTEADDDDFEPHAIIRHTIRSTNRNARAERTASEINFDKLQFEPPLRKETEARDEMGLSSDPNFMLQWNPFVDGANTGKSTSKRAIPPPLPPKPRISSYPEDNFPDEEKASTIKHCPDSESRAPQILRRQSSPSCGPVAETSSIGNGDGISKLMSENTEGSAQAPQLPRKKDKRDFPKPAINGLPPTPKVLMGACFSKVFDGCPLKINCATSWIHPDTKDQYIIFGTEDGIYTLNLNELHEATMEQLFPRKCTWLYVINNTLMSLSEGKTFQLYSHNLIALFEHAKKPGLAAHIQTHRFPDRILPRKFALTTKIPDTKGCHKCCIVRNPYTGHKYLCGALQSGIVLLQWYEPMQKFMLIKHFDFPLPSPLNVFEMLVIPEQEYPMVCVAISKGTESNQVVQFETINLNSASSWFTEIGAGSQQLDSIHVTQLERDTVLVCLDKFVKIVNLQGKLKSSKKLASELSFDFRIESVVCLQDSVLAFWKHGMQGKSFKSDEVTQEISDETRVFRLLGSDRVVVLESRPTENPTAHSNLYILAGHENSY

Substance | solubility in G1/S (log2) (HeLa Kyoto [1]) | solubility change mitosis (log2) (HeLa Kyoto [2])
MAMASPAIGQRPYPLLLDPEPPRYLQSLSGPELPPPPPDRSSRLCVPAPLSTAPGAREGRSARRAARGNLEPPPRASRPARPLRPGLQQRLRRRPGAPRPRDVRSIFEQPQDPRVPAERGEGHCFAELVLPGGPGWCDLCGREVLRQALRCTNCKFTCHPECRSLIQLDCSQQEGLSRDRPSPESTLTVTFSQNVCKPVEETQRPPTLQEIKQKIDSYNTREKNCLGMKLSEDGTYTGFIKVHLKLRRPVTVPAGIRPQSIYDAIKEVNLAATTDKRTSFYLPLDAIKQLHISSTTTVSEVIQGLLKKFMVVDNPQKFALFKRIHKDGQVLFQKLSIADRPLYLRLLAGPDTEVLSFVLKENETGEVEWDAFSIPELQNFLTILEKEEQDKIQQVQKKYDKFRQKLEEALRESQGKPG [RASSF5] | 0.328 | -0.108
MAP4K5 | 0.172 | -0.0819
MAPEENAGTELLLQSFERRFLAARTLRSFPWQSLEAKLRDSSDSELLRDILHKTVKHPVCVKHPPSVKYARCFLSELIKKHEAVHTEPLDELYEALAETLMAKESTQGHRSYLLPSGGSVTLSESTAIISYGTTGLVTWDAALYLAEWAIENPAVFTNRTVLELGSGAGLTGLAICKMCRPRAYIFSDCHSRVLEQLRGNVLLNGLSLEADITAKLDSPRVTVAQLDWDVATVHQLSAFQPDVVIAADVLYCPEAIMSLVGVLRRLAACREHQRAPEVYVAFTVRNPETCQLFTTELGRAGIRWEVEPRHEQKLFPYEEHLEMAMLNLTL [EEF2KMT] | 0.0707 | -0.00202
MAPGEVTITVRLIRSFEHRNFKPVVYHGVNLDQTVKEFIVFLKQDIPLRTNLPPPFRNYKYDALKIIHQAHKSKTNELVLSLEDDERLLLKEDSTLKAAGIASETEIAFFCEEDYKNYKANPISSW [C2ORF76] | -0.239 | 0.0795
MAPPAGGAAAAASDLGSAAVLLAVHAAVRPLGAGPDAEAQLRRLQLSADPERPGRFRLELLGAGPGAVNLEWPLESVSYTIRGPTQHELQPPPGGPGTLSLHFLNPQEAQRWAVLVRGATVEGQNGSKSNSPPALGPEACPVSLPSPPEASTLKGPPPEADLPRSPGNLTEREELAGSLARAIAGGDEKGAAQVAAVLAQHRVALSVQLQEACFPPGPIRLQVTLEDAASAASAASSAHVALQVHPHCTVAALQEQVFSELGFPPAVQRWVIGRCLCVPERSLASYGVRQDGDPAFLYLLSAPREAPATGPSPQHPQKMDGELGRLFPPSLGLPPGPQPAASSLPSPLQPSWSCPSCTFINAPDRPGCEMCSTQRPCTWDPLAAAST [SHARPIN] | 0.196 | -0.0725
MAPRKGSSRVAKTNSLRRRKLASFLKDFDREVEIRIKQIESDRQNLLKEVDNLYNIEILRLPKALREMNWLDYFALGGNKQALEEAATADLDITEINKLTAEAIQTPLKSAKTRKVIQVDEMIVEEEEEEENERKNLQTARVKRCPPSKKRTQSIQGKGKGKRSSRANTVTPAVGRLEVSMVKPTPGLTPRFDSRVFKTPGLRTPAAGERIYNISGNGSPLADSKEIFLTVPVGGGESLRLLASDLQRHSIAQLDPEALGNIKKLSNRLAQICSSIRTHK [CDCA8] | -1.64 | 0.0931
MAQAHRTPQPRAAPSQPRVFKLVLLGSGSVGKSSLALRYVKNDFKSILPTVGCAFFTKVVDVGATSLKLEIWDTAGQEKYHSVCHLYFRGANAALLVYDITRKDSFLKAQQWLKDLEEELHPGEVLVMLVGNKTDLSQEREVTFQEGKEFADSQKLLFMETSAKLNHQVSEVFNTVAQELLQRSDEEGQALRGDAAVALNKGPARQAKCCAH [RAB17] | 0.138 | -0.134
MAQASLLACEGLAGVSLVPTAASKKMMLSQIASKQAENGERAGSPDVLRCSSQGHRKDSDKSRSRKDDDSLSEASHSKKTVKKVVVVEQNGSFQVKIPKNFVCEHCFGAFRSSYHLKRHILIHTGEKPFECDICDMRFIQKYHLERHKRVHSGEKPYQCERCHQCFSRTDRLLRHKRMCQGCQSKTSDGQFSL [ZNF740] | -0.111 | -0.0892
MAQGLIEVERKFLPGPGTEERLQELGGTLEYRVTFRDTYYDTPELSLMQADHWLRRREDSGWELKCPGAAGVLGPHTEYKELTAEPTIVAQLCKVLRADGLGAGDVAAVLGPLGLQEVASFVTKRSAWKLVLLGADEEEPQLRVDLDTADFGYAVGEVEALVHEEAEVPTALEKIHRLSSMLGVPAQETAPAKLIVYLQRFRPQDYQRLLEVNSSRERPQETEDPDHCLG [THTPA] | 0.0904 | 0.0566
MAQGSHQIDFQVLHDLRQKFPEVPEVVVSRCMLQNNNNLDACCAVLSQESTRYLYGEGDLNFSDDSGISGLRNHMTSLNLDLQSQNIYHHGREGSRMNGSRTLTHSISDGQLQGGQSNSELFQQEPQTAPAQVPQGFNVFGMSSSSGASNSAPHLGFHLGSKGTSSLSQQTPRFNPIMVTLAPNIQTGRNTPTSLHIHGVPPPVLNSPQGNSIYIRPYITTPGGTTRQTQQHSGWVSQFNPMNPQQVYQPSQPGPWTTCPASNPLSHTSSQQPNQQGHQTSHVYMPISSPTTSQPPTIHSSGSSQSSAHSQYNIQNISTGPRKNQIEIKLEPPQRNNSSKLRSSGPRTSSTSSSVNSQTLNRNQPTVYIAASPPNTDELMSRSQPKVYISANAATGDEQVMRNQPTLFISTNSGASAASRNMSGQVSMGPAFIHHHPPKSRAIGNNSATSPRVVVTQPNTKYTFKITVSPNKPPAVSPGVVSPTFELTNLLNHPDHYVETENIQHLTDPTLAHVDRISETRKLSMGSDDAAYTQALLVHQKARMERLQRELEIQKKKLDKLKSEVNEMENNLTRRRLKRSNSISQIPSLEEMQQLRSCNRQLQIDIDCLTKEIDLFQARGPHFNPSAIHNFYDNIGFVGPVPPKPKDQRSIIKTPKTQDTEDDEGAQWNCTACTFLNHPALIRCEQCEMPRHF [TAB2] | 0.348 | -0.0447
MAQKENSYPWPYGRQTAPSGLSTLPQRVLRKEPVTPSALVLMSRSNVQPTAAPGQKVMENSSGTPDILTRHFTIDDFEIGRPLGKGKFGNVYLAREKKSHFIVALKVLFKSQIEKEGVEHQLRREIEIQAHLHHPNILRLYNYFYDRRRIYLILEYAPRGELYKELQKSCTFDEQRTATIMEELADALMYCHGKKVIHRDIKPENLLLGLKGELKIADFGWSVHAPSLRRKTMCGTLDYLPPEMIEGRMHNEKVDLWCIGVLCYELLVGNPPFESASHNETYRRIVKVDLKFPASVPMGAQDLISKLLRHNPSERLPLAQVSAHPWVRANSRRVLPPSALQSVA [AURKB] | -1.2 | -0.11
MAQRYDDLPHYGGMDGVGIPSTMYGDPHAARSMQPVHHLNHGPPLHSHQYPHTAHTNAMAPSMGSSVNDALKRDKDAIYGHPLFPLLALIFEKCELATCTPREPGVAGGDVCSSESFNEDIAVFAKQIRAEKPLFSSNPELDNLMIQAIQVLRFHLLELEKVHELCDNFCHRYISCLKGKMPIDLVIDDREGGSKSDSEDITRSANLTDQPSWNRDHDDTASTRSGGTPGPSSGGHTSHSGDNSSEQGDGLDNSVASPSTGDDDDPDKDKKRHKKRGIFPKVATNIMRAWLFQHLTHPYPSEEQKKQLAQDTGLTILQVNNWFINARRRIVQPMIDQSNRAVSQGTPYNPDGQPMGGFVMDGQQHMGIRAPGPMSGMGMNMGMEGQWHYM [MEIS1] | 0.363 | -0.208
MARGGDTGCTGPSETSASGAAAIALPGLEGPATDAQCQTLPLTVLKSRSPSPRSLPPALSCPPPQPAMLEHLSSLPTQMDYKGQKLAEQMFQGIILFSAIVGFIYGYVAEQFGWTVYIVMAGFAFSCLLTLPPWPIYRRHPLKWLPVQESSTDDKKPGERKIKRHAKNN [SPCS1] | -0.248 | -0.00723
MASESETLNPSARIMTFYPTMEEFRNFSRYIAYIESQGAHRAGLAKVVPPKEWKPRASYDDIDDLVIPAPIQQLVTGQSGLFTQYNIQKKAMTVREFRKIANSDKYCTPRYSEFEELERKYWKNLTFNPPIYGADVNGTLYEKHVDEWNIGRLRTILDLVEKESGITIEGVNTPYLYFGMWKTSFAWHTEDMDLYSINYLHFGEPKSWYSVPPEHGKRLERLAKGFFPGSAQSCEAFLRHKMTLISPLMLKKYGIPFDKVTQEAGEFMITFPYGYHAGFNHGFNCAESTNFATRRWIEYGKQAVLCSCRKDMVKISMDVFVRKFQPERYKLWKAGKDNTVIDHTLPTPEAAEFLKESELPPRAGNEEECPEEDMEGVEDGEEGDLKTSLAKHRIGTKRHRVCLEIPQEVSQSELFPKEDLSSEQYEMTECPAALAPVRPTHSSVRQVEDGLTFPDYSDSTEVKFEELKNVKLEEEDEEEEQAAAALDLSVNPASVGGRLVFSGSKKKSSSSLGSGSSRDSISSDSETSEPLSCRAQGQTGVLTVHSYAKGDGRVTVGEPCTRKKGSAARSFSERELAEVADEYMFSLEENKKSKGRRQPLSKLPRHHPLVLQECVSDDETSEQLTPEEEAEETEAWAKPLSQLWQNRPPNFEAEKEFNETMAQQAPHCAVCMIFQTYHQVEFGGFNQNCGNASDLAPQKQRTKPLIPEMCFTSTGCSTDINLSTPYLEEDGTSILVSCKKCSVRVHASCYGVPPAKASEDWMCSRCSANALEEDCCLCSLRGGALQRANDDRWVHVSCAVAILEARFVNIAERSPVDVSKIPLPRFKLKCIFCKKRRKRTAGCCVQCSHGRCPTAFHVSCAQAAGVMMQPDDWPFVVFITCFRHKIPNLERAKGALQSITAGQKVISKHKNGRFYQCEVVRLTTETFYEVNFDDGSFSDNLYPEDIVSQDCLQFGPPAEGEVVQVRWTDGQVYGAKFVASHPIQMYQVEFEDGSQLVVKRDDVYTLDEELPKRVKSRLSVASDMRFNEIFTEKEVKQEKKRQRVINSRYREDYIEPALYRAIME [KDM4A] | -0.143 | 0.0206
MASGDFCSPGEGMEILQQVCSKQLPPCNLSKEDLLQNPYFSKLLLNLSQHVDESGLSLTLAKEQAQAWKEVRLHKTTWLRSEILHRVIQELLVDYYVKIQDTNVTSEDKKFHETLEQRLLVTELMRLLGPSQEREIPPLLGLEKADLLELMPLSEDFVWMRARLQQEVEEQLKKKCFTLLCYYDPNSDADSETVKAAKVWKLAEVLVGEQQQCQDAKSQQKEQMLLLEKKSAAYSQVLLRCLTLLQRLLQEHRLKTQSELDRINAQYLEVKCGAMILKLRMEELKILSDTYTVEKVEVHRLIRDRLEGAIHLQEQDMENSRQVLNSYEVLGEEFDRLVKEYTVLKQATENKRWALQEFSKVYR [HAUS4] | 0.377 | -0.0485
MASKKVCIVGSGNWGSAIAKIVGGNAAQLAQFDPRVTMWVFEEDIGGKKLTEIINTQHENVKYLPGHKLPPNVVAVPDVVQAAEDADILIFVVPHQFIGKICDQLKGHLKANATGISLIKGVDEGPNGLKLISEVIGERLGIPMSVLMGANIASEVADEKFCETTIGCKDPAQGQLLKELMQTPNFRITVVQEVDTVEICGALKNVVAVGAGFCDGLGFGDNTKAAVIRLGLMEMIAFAKLFCSGPVSSATFLESCGVADLITTCYGGRNRKVAEAFARTGKSIEQLEKELLNGQKLQGPETARELYSILQHKGLVDKFPLFMAVYKVCYEGQPVGEFIHCLQNHPEHM [GPD1] | 0.278 | 0.00396
